Data published in patent publication EP4624492A1 (Shanghai Hongcheng Biopharmaceutical Co., Ltd., dated 2025).
Like-named read-outs stand apart in the source and are kept apart here.

Legend:
human CCR8 [1] = target: T1, human CCR8 (human, UniProt P51685 1-355); assay: flow cytometry, competition with 10 nM AF647-human CCL1 on 293F-hCCR8 cells
T1 construct: whole, on cells; the cell line is named under assay; also called hCCR8

human CCR8 [2] = target: T1, human CCR8; assay: flow cytometry on 293F-hCCR8 cells
human CCR8 [3] = target: T1, human CCR8; assay: cell-based or functional assay
cynomolgus CCR8 = target: T2, cynomolgus CCR8 (cynomolgus monkey); assay: flow cytometry on 293T-cynoCCR8 cells
T2 construct: whole, on cells; the constructs of the cell lines are not tied to it word for word; also called cynoCCR8

human CCR8 [4] = target: T1, human CCR8; assay: cell-based or functional assay; remark: listed apart in the source
human CCR8 [5] = target: T1, human CCR8; assay: cell-based or functional assay; remark: listed apart in the source
human CCR8 [6] = target: T1, human CCR8; assay: cell-based or functional assay; remark: listed apart in the source
human CCR8 [7] = target: T1, human CCR8; assay: flow cytometry on 293F-hCCR8 cells; remark: listed apart in the source
human CCR8 [8] = target: T1, human CCR8; assay: flow cytometry, competition with 10 nM AF647-human CCL1 on 293F-hCCR8 cells; remark: listed apart in the source

T1 sequence (P51685 whole entry): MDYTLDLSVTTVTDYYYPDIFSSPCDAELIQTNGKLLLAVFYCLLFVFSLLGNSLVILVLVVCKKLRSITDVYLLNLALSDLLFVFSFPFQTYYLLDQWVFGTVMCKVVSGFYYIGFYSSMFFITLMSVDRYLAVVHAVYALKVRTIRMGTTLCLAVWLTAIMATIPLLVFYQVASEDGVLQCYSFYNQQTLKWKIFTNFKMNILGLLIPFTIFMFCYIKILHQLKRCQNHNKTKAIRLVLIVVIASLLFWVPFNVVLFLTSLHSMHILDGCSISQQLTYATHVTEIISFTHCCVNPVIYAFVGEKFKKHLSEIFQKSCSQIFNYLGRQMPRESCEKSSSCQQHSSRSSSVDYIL

Binder | IC50 (human CCR8 [1]) | EC50 (human CCR8 [2]) | IC50 of blockade of CCL1-induced β-arrestin recruitment (Tango-H_CCR8-CHO-K1 cells) (human CCR8 [3]) | EC50 (cynomolgus CCR8) | EC50 of activation of Jurkat-human FcγRIIIa(158V)-NFAT with HuT78 target cells (human CCR8 [4]) | EC50 of activation of Jurkat-human FcγRIIIa(158V)-NFAT with 293F-hCCR8 target cells (human CCR8 [5]) | EC50 of ADCC effect (lysis%) by human PBMCs on CHOK1-hCCR8 cells (human CCR8 [6]) | EC50 (human CCR8 [7]) | IC50 (human CCR8 [8])
559E1B10_mIgG2a (antibody, also called mIgG2a-subclass chimeric antibody 559E1B10) heavy: KVQLQQSGPVLVKPGASVKMSCKASGYTFTDYYVNWMKQNYGKSPEWIGVINPHNGDTRYNQKFKGKATLTVDKSSSTANMELTSLTSGDSAVYYCASWLRRGYYFDSWGQGTTLTVSSAKTTAPSVYPLAPVCGDTTGSSVTLGCLVKGYFPEPVTLTWNSGSLSSGVHTFPAVLQSDLYTLSSSVTVTSSTWPSQSITCNVAHPASSTKVDKKIEPRGPTIKPCPPCKCPAPNLLGGPSVFIFPPKIKDVLMISLSPIVTCVVVDVSEDDPDVQISWFVNNVEVHTAQTQTHREDYNSTLRVVSALPIQHQDWMSGKEFKCKVNNKDLPAPIERTISKPKGSVRAPQVYVLPPPEEEMTKKQVTLTCMVTDFMPEDIYVEWTNNGKTELNYKNTEPVLDSDGSYFMYSKLRVEKKNWVERNSYSCSVVHEGLHNHHTTKSFSRTPGK light: DIVMTQSPATLSVTPGDRVSLSCRASQSISDYLHWYQQKSHESPRLLLKYVSQSISGIPSRFSGSGSGSDFTLTINSVEPEDVGVYYCQNGHSFPLTFGAGTKLELKRADAAPTVSIFPPSSEQLTSGGASVVCFLNNFYPKDINVKWKIDGSERQNGVLNSWTDQDSKDSTYSMSSTLTLTKDEYERHNSYTCEATHKTSTSPIVKSFNRNEC | 0.0649 µg/mL | 0.1 µg/mL | 1760 ng/mL | 0.0819 µg/mL | – | – | – | – | –
563E10E12_hzH1L0_DE (antibody, human IgG1, kappa) heavy: not shown light: DIVMTQSPLSLPVTPGEPASISCRSSKSLLHSNGITYLFWYLQKPGQSPQLLIYQMSNLASGVPDRFSGSGSGTDFTLKISRVEAEDVGVYYCAQSLELPLTFGGGTKVEIKRTVAAPSVFIFPPSDEQLKSGTASVVCLLNNFYPREAKVQWKVDNALQSGNSQESVTEQDSKDSTYSLSSTLTLSKADYEKHKVYACEVTHQGLSSPVTKSFNRGEC | – | – | – | – | 8.3 ng/mL | 0.9 ng/mL | 0.6 ng/mL | – | –
563E10E12_hzH1L0_DLE (antibody, human IgG1, kappa) heavy: EVQLVESGGGLVQPGGSLKLSCAASGFNFNAYAMNWVRQASGKGLEWVGRIRSKSNNFATYYADSVTDRFTISRDDSKNTAYLQMNSLKTEDTAVYYCVRHGRRDLLYSMDFWGQGTTVTVSSASTKGPSVFPLAPSSKSTSGGTAALGCLVKDYFPEPVTVSWNSGALTSGVHTFPAVLQSSGLYSLSSVVTVPSSSLGTQTYICNVNHKPSNTKVDKKVEPKSCDKTHTCPPCPAPELLGGPDVFLFPPKPKDTLMISRTPEVTCVVVDVSHEDPEVKFNWYVDGVEVHNAKTKPREEQYNSTYRVVSVLTVLHQDWLNGKEYKCKVSNKALPLPEEKTISKAKGQPREPQVYTLPPSRDELTKNQVSLTCLVKGFYPSDIAVEWESNGQPENNYKTTPPVLDSDGSFFLYSKLTVDKSRWQQGNVFSCSVMHEALHNHYTQKSLSLSPGK light: DIVMTQSPLSLPVTPGEPASISCRSSKSLLHSNGITYLFWYLQKPGQSPQLLIYQMSNLASGVPDRFSGSGSGTDFTLKISRVEAEDVGVYYCAQSLELPLTFGGGTKVEIKRTVAAPSVFIFPPSDEQLKSGTASVVCLLNNFYPREAKVQWKVDNALQSGNSQESVTEQDSKDSTYSLSSTLTLSKADYEKHKVYACEVTHQGLSSPVTKSFNRGEC | – | – | – | – | 5.7 ng/mL | 0.7 ng/mL | 0.39 ng/mL | – | –
563E10E12_hzH1L0_AF (antibody, human IgG1, kappa, afucosylated (expressed in ExpiCHO cells with 2F-peracetyl-fucose)) heavy: not shown light: DIVMTQSPLSLPVTPGEPASISCRSSKSLLHSNGITYLFWYLQKPGQSPQLLIYQMSNLASGVPDRFSGSGSGTDFTLKISRVEAEDVGVYYCAQSLELPLTFGGGTKVEIKRTVAAPSVFIFPPSDEQLKSGTASVVCLLNNFYPREAKVQWKVDNALQSGNSQESVTEQDSKDSTYSLSSTLTLSKADYEKHKVYACEVTHQGLSSPVTKSFNRGEC | – | – | – | – | 11 ng/mL | 0.9 ng/mL | 0.31 ng/mL | – | –
569D11B5_mIgG2a (antibody, also called mIgG2a-subclass chimeric antibody 569D11B5) heavy: EVQLIESGGGLVQPKGSLKLSCAASGFNFNAYAMNWVRQAPGKGLEWVARIRSKSNDFATYYADSVKGRFTISRDDSENMLFLQMNNLKTEDTAMYYCVRHGRRDLLYSMDFWGQGTSVTVSSAKTTAPSVYPLAPVCGDTTGSSVTLGCLVKGYFPEPVTLTWNSGSLSSGVHTFPAVLQSDLYTLSSSVTVTSSTWPSQSITCNVAHPASSTKVDKKIEPRGPTIKPCPPCKCPAPNLLGGPSVFIFPPKIKDVLMISLSPIVTCVVVDVSEDDPDVQISWFVNNVEVHTAQTQTHREDYNSTLRVVSALPIQHQDWMSGKEFKCKVNNKDLPAPIERTISKPKGSVRAPQVYVLPPPEEEMTKKQVTLTCMVTDFMPEDIYVEWTNNGKTELNYKNTEPVLDSDGSYFMYSKLRVEKKNWVERNSYSCSVVHEGLHNHHTTKSFSRTPGK light: DIVMTQAAFSNPVTLGTSASISCRSSKSLLHSNGITYLFWYLQKPGQSPQLLIYQMSNLASGVPDRFSGSGSGTDFTLRISRVEAEDVGVYYCAQSLELPLTFGGGTKLEIKRADAAPTVSIFPPSSEQLTSGGASVVCFLNNFYPKDINVKWKIDGSERQNGVLNSWTDQDSKDSTYSMSSTLTLTKDEYERHNSYTCEATHKTSTSPIVKSFNRNEC | 0.0544 µg/mL | 0.0835 µg/mL | 996 ng/mL | 0.072 µg/mL | – | – | – | – | –
589D7C7_mIgG2a (antibody, also called mIgG2a-subclass chimeric antibody 589D7C7) heavy: EVQLVESGGGLVQPKGSLKLSCAASGFNFNAYAMNWVRQAPGKGLEWVARIRSKSNNFATYYADSVKDRFTISRDDSESMVYLEMNNLKTEDTAMYYCVRHGRRDLLYSMDFWGQGTSVTVSSAKTTAPSVYPLAPVCGDTTGSSVTLGCLVKGYFPEPVTLTWNSGSLSSGVHTFPAVLQSDLYTLSSSVTVTSSTWPSQSITCNVAHPASSTKVDKKIEPRGPTIKPCPPCKCPAPNLLGGPSVFIFPPKIKDVLMISLSPIVTCVVVDVSEDDPDVQISWFVNNVEVHTAQTQTHREDYNSTLRVVSALPIQHQDWMSGKEFKCKVNNKDLPAPIERTISKPKGSVRAPQVYVLPPPEEEMTKKQVTLTCMVTDFMPEDIYVEWTNNGKTELNYKNTEPVLDSDGSYFMYSKLRVEKKNWVERNSYSCSVVHEGLHNHHTTKSFSRTPGK light: DIVMTQAAFSNPVTLGTSASISCRSSKSLLHSNGITYLFWYLQKPGQSPQLLIYQMSNLASGVPDRFSGSGSGTDFTLRISRVEAEDVAVYYCAQSLELPLTFGGGTKLEIKRADAAPTVSIFPPSSEQLTSGGASVVCFLNNFYPKDINVKWKIDGSERQNGVLNSWTDQDSKDSTYSMSSTLTLTKDEYERHNSYTCEATHKTSTSPIVKSFNRNEC | 0.0579 µg/mL | 0.0947 µg/mL | 993 ng/mL | 0.0662 µg/mL | – | – | – | – | –
27B9-1G3_hIgG1 (antibody, V domains shown, also called hIgG1-subclass chimeric antibody 27B9-1G3) VH: EIQLQQSGPELEKPGASVKISCKASGYSFTGYNMNWVKKSNGKSLEWIGNIDPYYGGTNYNQKFKGKATLTVDKSSSTAYMQLKSLTSEDSAVYYCARETWFITTGVIKKGFYFDYWGQGTTLTVSS VL: EIVLTQSPTTMAASPGEKITLACSASSIISSNYLHWYQQKPGFSPKLLIYRTSSLASGVPARFSGSGSGTSYSLTIGTMEAEDVATYYCQQGSSIPRTFGGGTKLEIKR | 0.273 µg/mL | 0.273 µg/mL | 260 ng/mL | 0.305 µg/mL | – | – | – | 0.139 µg/mL | 0.0959 µg/mL
